# Test results from US20240270846A1 (published 2024).
# Molecular target: T1, CD3 epsilon homodimer protein (UniProt P07766 23-126)
# T1 construct: also called CD3 (CD3 epsilon)
# Assay: SPR (Biacore T200), CD3e homodimer on CM4 chip, antibody as analyte; KD ratio vs unaltered GLS3000;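 also: CD3 epsilon homodimer amine-coupled to the sensor surface, antibodies injected as analyte at 25 °C with HBS-EP+ running buffer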
# T1 sequence (P07766 23-126): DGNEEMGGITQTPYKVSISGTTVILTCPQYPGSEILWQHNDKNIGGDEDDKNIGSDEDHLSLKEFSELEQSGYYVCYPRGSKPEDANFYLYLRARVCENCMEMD
row,KD ratio to GLS3000 [ratio],Binder
1,3.5,"CE115HA000/GLS3000 H34F one-arm antibody (antibody, human IgG1, kappa, L234A L235A, N297A, name in Kabat numbering, one-arm IgG1) heavy: QVQLVESGGGVVQPGRSLRLSCAASGFTFSNAWMHWVRQAPGKGLEWVAQIKAKSNNYATYYAESVKGRFTISRDDSKNSLYLQMNSLKTEDTAVYYCRYVHYGAYYGVDAWGQGTTVTVSSASTKGPSVFPLAPSSKSTSGGTAALGCLVKDYFPEPVTVSWNSGALTSGVHTFPAVLQSSGLYSLSSVVTVPSSSLGTQTYICNVNHKPSNTKVDKKVEPKSCDKTHTCPPCPAPEAAGGPSVFLFPPKPKDTLMISRTPEVTCVVVDVSHEDPEVKFNWYVDGVEVHNAKTKPREEQYASTYRVVSVLTVLHQDWLNGKEYKCKVSNKALPAPIEKTISKAKGQPREPQVYTLPPSRCELTKNQVSLSCAVKGFYPSDIAVEWESNGQPENNYKTTPPVLDSDGSFFLVSKLTVDKSRWQQGNVFSCSVMHEALHNHYTQKSLSLSPDYKDDDDK EPKSSDKTHTCPPCPAPELLGGPSVFLFPPKPKDTLMISRTPEVTCVVVDVSHEDPEVKFNWYVDGVEVHNAKTKPREEQYNSTYRVVSVLTVLHQDWLNGKEYKCKVSNKALPAPIEKTISKAKGQPREPQVCTLPPSRDELTKNQVSLWCLVKGFYPSDIAVEWESNGQPENNYKTTPPVLDSDGSFFLYSKLTVDKSRWQQGNVFSCSVMHEALHNRYTQKSLSLSP light: DIVMTQSPLSLPVTPGEPASISCRSSQSLVHSNRNTYLFWYQQKPGQAPRLLIYKVSNRFSGVPDRFSGSGSGTDFTLKISRVEAEDVGVYYCGQGTQVPYTFGQGTKLEIKRTVAAPSVFIFPPSDEQLKSGTASVVCLLNNFYPREAKVQWKVDNALQSGNSQESVTEQDSKDSTYSLSSTLTLSKADYEKHKVYACEVTHQGLSSPVTKSFNRGEC"
2,1.08,"CE115HA000/GLS3000 H34G one-arm antibody (antibody, human IgG1, kappa, L234A L235A, N297A, name in Kabat numbering, one-arm IgG1) heavy: QVQLVESGGGVVQPGRSLRLSCAASGFTFSNAWMHWVRQAPGKGLEWVAQIKAKSNNYATYYAESVKGRFTISRDDSKNSLYLQMNSLKTEDTAVYYCRYVHYGAYYGVDAWGQGTTVTVSSASTKGPSVFPLAPSSKSTSGGTAALGCLVKDYFPEPVTVSWNSGALTSGVHTFPAVLQSSGLYSLSSVVTVPSSSLGTQTYICNVNHKPSNTKVDKKVEPKSCDKTHTCPPCPAPEAAGGPSVFLFPPKPKDTLMISRTPEVTCVVVDVSHEDPEVKFNWYVDGVEVHNAKTKPREEQYASTYRVVSVLTVLHQDWLNGKEYKCKVSNKALPAPIEKTISKAKGQPREPQVYTLPPSRCELTKNQVSLSCAVKGFYPSDIAVEWESNGQPENNYKTTPPVLDSDGSFFLVSKLTVDKSRWQQGNVFSCSVMHEALHNHYTQKSLSLSPDYKDDDDK EPKSSDKTHTCPPCPAPELLGGPSVFLFPPKPKDTLMISRTPEVTCVVVDVSHEDPEVKFNWYVDGVEVHNAKTKPREEQYNSTYRVVSVLTVLHQDWLNGKEYKCKVSNKALPAPIEKTISKAKGQPREPQVCTLPPSRDELTKNQVSLWCLVKGFYPSDIAVEWESNGQPENNYKTTPPVLDSDGSFFLYSKLTVDKSRWQQGNVFSCSVMHEALHNRYTQKSLSLSP light: DIVMTQSPLSLPVTPGEPASISCRSSQSLVHSNRNTYLGWYQQKPGQAPRLLIYKVSNRFSGVPDRFSGSGSGTDFTLKISRVEAEDVGVYYCGQGTQVPYTFGQGTKLEIKRTVAAPSVFIFPPSDEQLKSGTASVVCLLNNFYPREAKVQWKVDNALQSGNSQESVTEQDSKDSTYSLSSTLTLSKADYEKHKVYACEVTHQGLSSPVTKSFNRGEC"
3,0.89,"CE115HA000/GLS3000 H34I one-arm antibody (antibody, human IgG1, kappa, L234A L235A, N297A, name in Kabat numbering, one-arm IgG1) heavy: QVQLVESGGGVVQPGRSLRLSCAASGFTFSNAWMHWVRQAPGKGLEWVAQIKAKSNNYATYYAESVKGRFTISRDDSKNSLYLQMNSLKTEDTAVYYCRYVHYGAYYGVDAWGQGTTVTVSSASTKGPSVFPLAPSSKSTSGGTAALGCLVKDYFPEPVTVSWNSGALTSGVHTFPAVLQSSGLYSLSSVVTVPSSSLGTQTYICNVNHKPSNTKVDKKVEPKSCDKTHTCPPCPAPEAAGGPSVFLFPPKPKDTLMISRTPEVTCVVVDVSHEDPEVKFNWYVDGVEVHNAKTKPREEQYASTYRVVSVLTVLHQDWLNGKEYKCKVSNKALPAPIEKTISKAKGQPREPQVYTLPPSRCELTKNQVSLSCAVKGFYPSDIAVEWESNGQPENNYKTTPPVLDSDGSFFLVSKLTVDKSRWQQGNVFSCSVMHEALHNHYTQKSLSLSPDYKDDDDK EPKSSDKTHTCPPCPAPELLGGPSVFLFPPKPKDTLMISRTPEVTCVVVDVSHEDPEVKFNWYVDGVEVHNAKTKPREEQYNSTYRVVSVLTVLHQDWLNGKEYKCKVSNKALPAPIEKTISKAKGQPREPQVCTLPPSRDELTKNQVSLWCLVKGFYPSDIAVEWESNGQPENNYKTTPPVLDSDGSFFLYSKLTVDKSRWQQGNVFSCSVMHEALHNRYTQKSLSLSP light: DIVMTQSPLSLPVTPGEPASISCRSSQSLVHSNRNTYLIWYQQKPGQAPRLLIYKVSNRFSGVPDRFSGSGSGTDFTLKISRVEAEDVGVYYCGQGTQVPYTFGQGTKLEIKRTVAAPSVFIFPPSDEQLKSGTASVVCLLNNFYPREAKVQWKVDNALQSGNSQESVTEQDSKDSTYSLSSTLTLSKADYEKHKVYACEVTHQGLSSPVTKSFNRGEC"

# The remaining lines, values behind:
row,Binder,KD ratio to GLS3000 [ratio]
1,"CE115HA000/GLS3000 G91E one-arm antibody (antibody, human IgG1, kappa, L234A L235A, N297A, name in Kabat numbering, one-arm IgG1) heavy: QVQLVESGGGVVQPGRSLRLSCAASGFTFSNAWMHWVRQAPGKGLEWVAQIKAKSNNYATYYAESVKGRFTISRDDSKNSLYLQMNSLKTEDTAVYYCRYVHYGAYYGVDAWGQGTTVTVSSASTKGPSVFPLAPSSKSTSGGTAALGCLVKDYFPEPVTVSWNSGALTSGVHTFPAVLQSSGLYSLSSVVTVPSSSLGTQTYICNVNHKPSNTKVDKKVEPKSCDKTHTCPPCPAPEAAGGPSVFLFPPKPKDTLMISRTPEVTCVVVDVSHEDPEVKFNWYVDGVEVHNAKTKPREEQYASTYRVVSVLTVLHQDWLNGKEYKCKVSNKALPAPIEKTISKAKGQPREPQVYTLPPSRCELTKNQVSLSCAVKGFYPSDIAVEWESNGQPENNYKTTPPVLDSDGSFFLVSKLTVDKSRWQQGNVFSCSVMHEALHNHYTQKSLSLSPDYKDDDDK EPKSSDKTHTCPPCPAPELLGGPSVFLFPPKPKDTLMISRTPEVTCVVVDVSHEDPEVKFNWYVDGVEVHNAKTKPREEQYNSTYRVVSVLTVLHQDWLNGKEYKCKVSNKALPAPIEKTISKAKGQPREPQVCTLPPSRDELTKNQVSLWCLVKGFYPSDIAVEWESNGQPENNYKTTPPVLDSDGSFFLYSKLTVDKSRWQQGNVFSCSVMHEALHNRYTQKSLSLSP light: DIVMTQSPLSLPVTPGEPASISCRSSQSLVHSNRNTYLHWYQQKPGQAPRLLIYKVSNRFSGVPDRFSGSGSGTDFTLKISRVEAEDVGVYYCGQETQVPYTFGQGTKLEIKRTVAAPSVFIFPPSDEQLKSGTASVVCLLNNFYPREAKVQWKVDNALQSGNSQESVTEQDSKDSTYSLSSTLTLSKADYEKHKVYACEVTHQGLSSPVTKSFNRGEC",48.5
2,"CE115HA000/GLS3000 H34E one-arm antibody (antibody, human IgG1, kappa, L234A L235A, N297A, name in Kabat numbering, one-arm IgG1) heavy: QVQLVESGGGVVQPGRSLRLSCAASGFTFSNAWMHWVRQAPGKGLEWVAQIKAKSNNYATYYAESVKGRFTISRDDSKNSLYLQMNSLKTEDTAVYYCRYVHYGAYYGVDAWGQGTTVTVSSASTKGPSVFPLAPSSKSTSGGTAALGCLVKDYFPEPVTVSWNSGALTSGVHTFPAVLQSSGLYSLSSVVTVPSSSLGTQTYICNVNHKPSNTKVDKKVEPKSCDKTHTCPPCPAPEAAGGPSVFLFPPKPKDTLMISRTPEVTCVVVDVSHEDPEVKFNWYVDGVEVHNAKTKPREEQYASTYRVVSVLTVLHQDWLNGKEYKCKVSNKALPAPIEKTISKAKGQPREPQVYTLPPSRCELTKNQVSLSCAVKGFYPSDIAVEWESNGQPENNYKTTPPVLDSDGSFFLVSKLTVDKSRWQQGNVFSCSVMHEALHNHYTQKSLSLSPDYKDDDDK EPKSSDKTHTCPPCPAPELLGGPSVFLFPPKPKDTLMISRTPEVTCVVVDVSHEDPEVKFNWYVDGVEVHNAKTKPREEQYNSTYRVVSVLTVLHQDWLNGKEYKCKVSNKALPAPIEKTISKAKGQPREPQVCTLPPSRDELTKNQVSLWCLVKGFYPSDIAVEWESNGQPENNYKTTPPVLDSDGSFFLYSKLTVDKSRWQQGNVFSCSVMHEALHNRYTQKSLSLSP light: DIVMTQSPLSLPVTPGEPASISCRSSQSLVHSNRNTYLEWYQQKPGQAPRLLIYKVSNRFSGVPDRFSGSGSGTDFTLKISRVEAEDVGVYYCGQGTQVPYTFGQGTKLEIKRTVAAPSVFIFPPSDEQLKSGTASVVCLLNNFYPREAKVQWKVDNALQSGNSQESVTEQDSKDSTYSLSSTLTLSKADYEKHKVYACEVTHQGLSSPVTKSFNRGEC",8.03
3,"CE115HA000/GLS3000 H34D one-arm antibody (antibody, human IgG1, kappa, L234A L235A, N297A, name in Kabat numbering, one-arm IgG1) heavy: QVQLVESGGGVVQPGRSLRLSCAASGFTFSNAWMHWVRQAPGKGLEWVAQIKAKSNNYATYYAESVKGRFTISRDDSKNSLYLQMNSLKTEDTAVYYCRYVHYGAYYGVDAWGQGTTVTVSSASTKGPSVFPLAPSSKSTSGGTAALGCLVKDYFPEPVTVSWNSGALTSGVHTFPAVLQSSGLYSLSSVVTVPSSSLGTQTYICNVNHKPSNTKVDKKVEPKSCDKTHTCPPCPAPEAAGGPSVFLFPPKPKDTLMISRTPEVTCVVVDVSHEDPEVKFNWYVDGVEVHNAKTKPREEQYASTYRVVSVLTVLHQDWLNGKEYKCKVSNKALPAPIEKTISKAKGQPREPQVYTLPPSRCELTKNQVSLSCAVKGFYPSDIAVEWESNGQPENNYKTTPPVLDSDGSFFLVSKLTVDKSRWQQGNVFSCSVMHEALHNHYTQKSLSLSPDYKDDDDK EPKSSDKTHTCPPCPAPELLGGPSVFLFPPKPKDTLMISRTPEVTCVVVDVSHEDPEVKFNWYVDGVEVHNAKTKPREEQYNSTYRVVSVLTVLHQDWLNGKEYKCKVSNKALPAPIEKTISKAKGQPREPQVCTLPPSRDELTKNQVSLWCLVKGFYPSDIAVEWESNGQPENNYKTTPPVLDSDGSFFLYSKLTVDKSRWQQGNVFSCSVMHEALHNRYTQKSLSLSP light: DIVMTQSPLSLPVTPGEPASISCRSSQSLVHSNRNTYLDWYQQKPGQAPRLLIYKVSNRFSGVPDRFSGSGSGTDFTLKISRVEAEDVGVYYCGQGTQVPYTFGQGTKLEIKRTVAAPSVFIFPPSDEQLKSGTASVVCLLNNFYPREAKVQWKVDNALQSGNSQESVTEQDSKDSTYSLSSTLTLSKADYEKHKVYACEVTHQGLSSPVTKSFNRGEC",2100
